Patent US7193044B1, “Compounds and methods for regulating apoptosis, and methods of making and screening for compounds that regulate apoptosis” (Immunogen, Inc., priority 2000, dated 2007)

Tests used:
[1] = molecular target: GST-Bcl-XL (Homo sapiens, UniProt Q07817); assay: GST-Bcl-XL binding (glutathione bead pull-down) of BAD; details: 35S-labeled in vitro translated full-length protein incubated with PKA and ATP
Experimental: In order to test whether the additional and novel phosphorylation site on BAD has functional significance, the effect on BAD binding to Bcl-XL was examined. Recombinant Bcl-XL tagged with the glutathione S-transferase (“GST”) moiety (“GST-Bcl-XL”) was incubated with WCL prepared from COS-7 cells expressing the double mutant HA-BAD S112A/S136A, and the HA-BAD S112A/S136A that bound to the GST-Bcl-XL was precipitated with GST beads. […] No HA-BAD S112A/S136A was precipitated with GST beads from the WCL that were not incubated with GST-Bcl-XL (FIG. 1, lane 4).
The ability of full-length BAD and mutant BAD S155A to bind Bcl-XL was also determined (FIG. 3(c)). Full-length BAD (“WT”) and mutant BAD S155A (“S155A”) were produced by in vitro translation and labeled with ^35S-methionine therein. […] Proteins bound to the beads (“Bound”) (lower panel) and samples of the reactions collected prior to incubation with the beads (“Total”) (upper panel) were analyzed by SDS-PAGE followed by autoradiography.
For Bcl-XL binding studies, GST-Bcl-XL (1 mg/ml final concentration) was added to cell lysates derived from BAD expressing cells, and incubated with rotation for two hours at 4° C. […] The beads were then washed with RIPA buffer, the proteins were separated by SDS-PAGE and associated BAD detected by probing the blot with anti-HA antibody.

[2] = molecular target: T1, PKA (catalytic subunit from bovine heart) (Bos taurus, UniProt P00517); assay: In vitro kinase assay, phosphorylation of BAD and BAD mutants by PKA; format: biochemical; details: 35S-labeled in vitro translated protein
T1 construct: 11 units PKA (catalytic subunit from bovine heart, Calbiochem); purchased Calbiochem; host or cells: bovine heart
Experimental: The ability of full-length BAD and mutant BAD S155A to bind Bcl-XL was also determined (FIG. 3(c)). Full-length BAD (“WT”) and mutant BAD S155A (“S155A”) were produced by in vitro translation and labeled with ^35S-methionine therein. The labeled proteins were then incubated with PKA (“+”) in the presence of unlabeled ATP or a buffer control (“−”). Following the kinase reactions, aliquots of each sample of the four samples were incubated with either GST or GST-Bcl-XL. The protein complex were captured on glutathione-agarose beads. Proteins bound to the beads (“Bound”) (lower panel) and samples of the reactions collected prior to incubation with the beads (“Total”) (upper panel) were analyzed by SDS-PAGE followed by autoradiography.
The GST-tagged BAD and BAD mutants were then expressed individually in cells and the purified GST-tagged polypeptides incubated with purified PKA, in the presence of ^32P radiolabel. A western blot, probed with anti-BAD antibody, was performed on the incubated GST-tagged BAD and BAD mutants to determine whether PKA could phosphorylate the BAD and/or mutant BAD in vitro. The GST-tagged BAD and BAD mutants phosphorylated by PKA could be detected directly by autoradiography due to the incorporation of ^32P radiolabel when the polypeptides were phosphorylated (FIG. 4, upper panel), whereas the total amount of BAD and mutant BAD present in the in vitro reaction was detected by the anti-BAD antibody probe (FIG. 4, lower panel).
In vitro kinase assays were carried out in 30 μl volumes containing 10 mM HEPES buffer, pH 7.5, 100 mM NaCl, 12 mM MgCl2, 1 mM dithiothreitol, […] γ^32P-ATP ([…], NEN), 11 units PKA (catalytic subunit from bovine heart, Calbiochem), and 1 μg purified GST-BAD. Reactions were incubated for 30 min at 30° C. and terminated by the addition of SDS-PAGE sample buffer. Samples were run on a 4–20% SDS-PAGE gel (Novex), transferred to a nitrocellulose membrane and phosphorylated GST-BAD was visualized by autoradiography. To verify that equal amounts of GST-BAD substrates were used, the nitrocellulose was subjected to western blot analysis with 133 ng/ml anti-BAD antibody (C-20).

[3] = test system: BAD Ser155 phosphorylation in HeLa cells; assay: BAD phosphorylation in HeLa cells (western blot band-shift / anti-phospho-Ser155 antibody); format: cell-based, human; details: HeLa cells
Experimental: A mammalian expression vector encoding mutant HA-BAD S155A, derived from the shorter murine BAD of SEQ ID NO:3, was constructed. HA-BAD S155A has an amino acid sequence wherein the serine at a position corresponding to Ser155 is substituted with alanine. A western blot was performed on WCL prepared from cells expressing the shorter murine BAD (SEQ ID NO:3), HA-BAD S112A, HA-BAD S136A, or HA-BAD S155A, and probed with anti-HA antibody.
A western blot analysis, probed with anti-HA antibody, was performed on lysates produced from the Forskolin treated and untreated (control) cells to determine whether Forskolin could induce the phosphorylation BAD or mutant BAD.
HeLa cells transiently expressing HA-BAD, HA-BAD S155A, HA-BAD S112A/S136A, or HA-BAD S112A/S136A/S155A were treated with Forskolin or a buffer control.
The HA-BAD S112A/S136A double mutant was transiently expressed in HeLa cells, and transfected cell cultures were treated with each of the GPCR ligands, individually and as a group. A western blot analysis, probed with anti-HA antibody, was performed on lysates produced from the treated and untreated (negative control) cells. […] Forskolin (FK) and no treatment (−) were positive and negative controls, respectively (FIG. 6(a), […], respectively).
Non-transfected HeLa cells were treated with Forskolin or L-epinephrine, followed by western blot analysis of cell lysates using anti-BAD antibodies.
Transformants were treated with L-epinephrine, then lysed and subjected to anti-HA western blot analysis.
To further test whether phosphorylation of Ser155 is dependent on the PI 3-kinase/Akt pathway, HeLa cells were transfected with the mutant HA-BAD S155A and pretreated with Wortmannin, an inhibitor of PI 3-kinase. These cells were then stimulated with epidermal growth factor (EGF), lysed and analyzed by western blot analysis.
For immunoprecipitation of all HA-BAD species, 1 μg of the anti-HA antibody was added to the cell lysates, and incubated at 4° C. for one hour. Protein G agarose (Pierce) was then added (50 μl/fraction of 50% slurry) and followed by a one hour incubation at 4° C. Beads were washed with RIPA buffer, boiled in loading buffer (2% SDS, 10% glycerol, 5% β-ME, 60 mM Tris, pH 6.8, 0.002% Bromophenol Blue) and loaded onto polyacrylamide gels. After electrophoresis, proteins were transferred to nitrocellulose membranes, and blots blocked in western wash buffer (40 mM Tris, pH 8.0, 150 mM NaCl, 0.2% NP-40) with 5% BSA for one hour at room temperature. Blots were incubated with primary antibody diluted in western wash buffer with 3% BSA at room temperature for 1–2 hours, washed with western wash buffer and incubated with secondary HRP-coupled antibody diluted in western wash buffer with 1.5% BSA, and washed extensively. Polypeptides were detected with the ECL chemiluminescence according to the manufacturers instructions (Amersham).

[4] = test system: HeLa cells; assay: Beta-gal ELISA apoptosis assay in transfected HeLa cells; format: cell-based, human; details: in the presence of Forskolin after 24 hours
Experimental: Because BAD Ser155 phosphorylation, like Ser136 phosphorylation, prevents BAD from binding to Bcl-XL (FIG. 1), it was possible that by analogy, Ser155 dephosphorylation promotes cell death. To test this idea, HeLa cells were co-transfected with BAD or various BAD serine mutants and a β-gal reporter plasmid. Twenty-four hours post-transfection, cell viability was analyzed by β-gal ELISA.
To test this idea, HeLa cells were again co-transfected with BAD or various BAD serine mutants and a β-gal reporter plasmid. Forskolin was then added to half of the cultures while the other half was left untreated. Beta-gal ELISAs were performed 24 hours post transfection. […] Thus, phosphorylation of Ser155 rescues cells from BAD-induced apoptosis, while substitution of Ser155 with a nonphosphorylatable residue results in increased cell death and the failure of cells to be protected from induced PKA activity.
Beta-gal ELISA assays were performed using the β-gal ELISA system from Boehringer Mannheim, according to manufacture's instructions. Cells were transfected with BAD (or BAD mutant) and β-gal in a ratio of 5:1. The transfected cells were trypsinized and distributed into 96-well tissue culture plates. Twenty-four hours after transfection, cell extracts were obtained by lysing the cells in lysis buffer. Cell extracts (200 μl) were then added to anti-β-gal-coated microtiter plates (MTP). The MTPs were foil-covered and incubated for one hour at 37° C. Solutions were then decanted and the MTPs were washed, followed by the addition of 200 μl of anti-β-gal-DIG working solution, and incubation for an additional hour as described above. Solutions were again decanted, the MTPs washed and 200 μl of DIG-POD working solution were added. The MTPs were incubated for another hour at 37° C., the solution decanted, and the wells washed. 200 μl of substrate with enhancer were added to each well and incubated at room temperature until color development. The β-gal activity was measured by the absorbance of the sample at […]. Data were based on triplicate wells with standard deviations calculated.

Chain of GST-Bcl-XL (Q07817 whole entry): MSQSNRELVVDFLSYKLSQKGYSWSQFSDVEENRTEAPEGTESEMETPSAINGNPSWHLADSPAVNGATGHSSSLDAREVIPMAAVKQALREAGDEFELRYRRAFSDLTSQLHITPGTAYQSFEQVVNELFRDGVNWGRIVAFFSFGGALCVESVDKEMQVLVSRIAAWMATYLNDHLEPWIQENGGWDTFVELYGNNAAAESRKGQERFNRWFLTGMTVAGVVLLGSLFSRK

gel-mobility shift induced by phosphorylation by PKA [2]: induced a gel-mobility shift
B1: wild-type BAD: shorter murine BAD of SEQ ID NO:3 (162 aa), used untagged, HA-tagged or GST-tagged (protein, listed as Mus musculus)
chain: MFQIPEFEPSEQEDASATDRGLGPSLTEDQPGPYLAPGLLGSNIHQQGRAATNSHHGGAGAMETRSRHSSYPAGTEEDEGMEEELSPFRGRSRSAPPNLWAAQRYGRELRRMSDEFEGSFKGLPRPKSAGTATQMRQSAGWTRIIQSWWDRNLGKGGSTPSQ
modifications: optional HA or GST tag
binding to GST-Bcl-XL after phosphorylation by PKA [1]: blocked the ability of BAD to bind to Bcl-XL
band-shift (phosphorylation) of expressed BAD construct in response to L-epinephrine [3]: significant band-shift
more cells surviving transient expression than with the BAD S155A mutant [4]: Approximately 50%
